Data: patent US20030021776, “Regulation of angiogenesis with zinc finger proteins” (Sangamo BioSciences, Inc., published 2003)

How the values were obtained:
HUM 17A (VZ+472) = molecular target: T1, HUM 17A (VZ+472) (synthetic); assay: EMSA; 17 mM Tris, 170 mM KCl, 1.7 mM MgCl2, Zn; conditions: tags: MBP fusion (pMal-c2), SP1 backbone
T1 chain: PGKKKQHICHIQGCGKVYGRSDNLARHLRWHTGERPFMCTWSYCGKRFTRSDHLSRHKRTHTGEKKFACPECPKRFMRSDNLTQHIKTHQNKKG
Method: (§1) Binding studies were performed essentially as described (Zhang et al., supra; WO 00/41566; and WO 00/42219) except that the binding reactions contained 10 pM of labeled target site and the buffer composition was as follows: 17 mM Tris, 170 mM KCl, 1.7 mM MgCl2, 3.5 mM DTT, 0.01-0.033 mM ZnCl2, 15% glycerol, 300 μg/ml bovine serum albumin, 0.03% IGEPAL. In addition, ZFP concentrations for these studies were determined directly by measuring the DNA-binding activity of each ZFP preparation using conditions under which binding is essentially stoichiometric (ZFP and target site concentrations of >100 nM).

[1] = molecular target: T2, VOP 32B-7 (VZ+434b, mVZ+426) (synthetic); assay: EMSA; 170 mM KCl, 1.7 mM MgCl2, Zn; conditions: tags: MBP fusion (pMal-c2), SP1 backbone
T2 chain: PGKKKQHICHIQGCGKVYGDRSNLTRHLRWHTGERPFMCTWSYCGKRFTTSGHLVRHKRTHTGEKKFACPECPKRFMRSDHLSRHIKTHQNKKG
Method: as §1

[2] = molecular target: T2, VOP 32B-7 (VZ+434b, mVZ+426); assay: EMSA; upper bound; 10 mM Tris, 100 mM KCl, 1 mM MgCl2, 0.01 mM ZnCl2; conditions: tags: MBP fusion (pMal-c2), SP1 backbone
Method: (§2) A three-fold dilution series of each protein was tested for binding to its DNA target (SEQ ID NOS:207, 144, 240, and 141, respectively), with the highest concentration in lane 10 and the lowest concentration in lane 2. Lane 1 contains probe alone.
(§3) Binding studies. Binding studies were performed essentially as described (Liu, et al. (2001) J. Biol. Chem. 276: 11,323-11,334), except that the buffer was modified to the following final composition: 10 mM Tris, 100 mM KCl, 1 mM MgCl₂, 10 mM DTT, 0.01 mM ZnCl₂, 10% glycerol, 200 μg/ml bovine serum albumin, 0.02% IGEPAL.
(§4) Genes for our ZFPs were assembled (see experimental procedures) and each protein was expressed and purified essentially as described (Liu et. al., 2001, supra; and Zhang et. al., supra). We then characterized the DNA-binding affinity of each ZFP using a gel shift assay. Procedures for these studies were essentially identical to those described previously (Liu et. al., 2001, supra; and Zhang et. al., supra) except for the use of a modified binding buffer.

VOP 35A-10 (VZ+892) [3] = molecular target: VOP 35A-10 (VZ+892) (synthetic); assay: EMSA; Table 6 gives 0.24 nM for same helices (VZ+892); conditions: tags: MBP fusion (pMal-c2), SP1 backbone
VOP 29A-3 = molecular target: T3, VOP 29A-3 (synthetic); assay: EMSA; conditions: tags: MBP fusion (pMal-c2), SP1 backbone
T3 chain: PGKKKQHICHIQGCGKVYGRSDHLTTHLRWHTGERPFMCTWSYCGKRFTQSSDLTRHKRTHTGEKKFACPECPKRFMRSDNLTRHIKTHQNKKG

HUM 19A = molecular target: T4, HUM 19A (synthetic); assay: EMSA; conditions: tags: MBP fusion (pMal-c2), SP1 backbone
T4 chain: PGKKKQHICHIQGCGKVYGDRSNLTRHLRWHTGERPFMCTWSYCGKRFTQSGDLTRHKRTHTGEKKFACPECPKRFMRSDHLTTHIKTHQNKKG

SP1 zinc finger domain [4] = molecular target: T5, SP1 zinc finger domain (UniProt P08047 SEQ:1-94); assay: EMSA; 170 mM KCl, 1.7 mM MgCl2, Zn
Method: as §1

SP1 zinc finger domain [5] = molecular target: T5, SP1 zinc finger domain; assay: EMSA; 100 mM KCl, 1 mM MgCl2, Zn
Method: as §3, §4

USX 3A = USX 3A (synthetic); assay: EMSA; conditions: tags: MBP fusion (pMal-c2), SP1 backbone
MTS 5A = MTS 5A (synthetic, UniProt P08047); assay: EMSA; conditions: tags: MBP fusion (pMal-c2), SP1 backbone
[6] = molecular target: VOP 30A-4 (VZ+42/+530, mVZ+509) (synthetic); assay: EMSA; upper bound; 10 mM Tris, 100 mM KCl, 1 mM MgCl2, 0.01 mM ZnCl2; conditions: tags: MBP fusion (pMal-c2), SP1 backbone
Method: as §2, §3, §4

VZ-950 = molecular target: T6, VZ-950 (synthetic); assay: EMSA; 170 mM KCl, 1.7 mM MgCl2, Zn; conditions: tags: MBP fusion (pMal-c2), SP1 backbone
T6 chain: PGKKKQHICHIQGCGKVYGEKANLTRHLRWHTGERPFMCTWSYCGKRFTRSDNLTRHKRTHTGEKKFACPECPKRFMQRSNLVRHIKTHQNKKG
Method: as §1

PDF 5A (VZ+590) = molecular target: T7, PDF 5A (VZ+590) (synthetic); assay: EMSA; 170 mM KCl, 1.7 mM MgCl2, Zn; conditions: tags: MBP fusion (pMal-c2), SP1 backbone
T7 chain: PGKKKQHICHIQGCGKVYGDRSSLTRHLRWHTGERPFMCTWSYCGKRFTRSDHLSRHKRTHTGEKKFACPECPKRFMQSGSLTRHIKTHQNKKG
Method: as §1

VOP 35A-10 (VZ+892) [7] = molecular target: VOP 35A-10 (VZ+892) (synthetic); assay: EMSA; 170 mM KCl, 1.7 mM MgCl2, Zn; conditions: tags: MBP fusion (pMal-c2), SP1 backbone
Method: as §1

VG 8A (VZ-475) = VG 8A (VZ-475) (synthetic); assay: EMSA; 170 mM KCl, 1.7 mM MgCl2, Zn; conditions: tags: MBP fusion (pMal-c2), SP1 backbone
Method: as §1

MX1E = molecular target: T8, MX1E (synthetic); assay: EMSA; conditions: tags: MBP fusion (pMal-c2), SP1 backbone
T8 chain: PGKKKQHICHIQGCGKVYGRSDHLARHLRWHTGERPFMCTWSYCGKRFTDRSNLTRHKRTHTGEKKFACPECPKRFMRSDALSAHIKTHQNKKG

BVO 13A = molecular target: T9, BVO 13A (synthetic); assay: EMSA; conditions: tags: MBP fusion (pMal-c2), SP1 backbone
T9 chain: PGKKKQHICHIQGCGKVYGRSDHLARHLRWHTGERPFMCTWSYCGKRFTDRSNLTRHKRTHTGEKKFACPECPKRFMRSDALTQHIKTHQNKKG

ZEN-7A 1 (VZ-573) = ZEN-7A 1 (VZ-573) (synthetic, UniProt P08047); assay: EMSA; 170 mM KCl, 1.7 mM MgCl2, Zn; conditions: tags: MBP fusion (pMal-c2), SP1 backbone
Method: as §1

VEGF 1B = VEGF 1B (synthetic, UniProt P08047); assay: EMSA; conditions: tags: MBP fusion (pMal-c2), SP1 backbone
VEGF 1 (VZ-8) = molecular target: T10, VEGF 1 (VZ-8) (synthetic, UniProt P08047); assay: EMSA; 170 mM KCl, 1.7 mM MgCl2, Zn; conditions: tags: MBP fusion (pMal-c2), SP1 backbone
T10 chain: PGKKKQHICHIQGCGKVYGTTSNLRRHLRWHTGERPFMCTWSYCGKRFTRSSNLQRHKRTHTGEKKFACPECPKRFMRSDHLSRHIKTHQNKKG
Method: as §1

[8] = molecular target: T11, VOP 32B-VP16 (VZ+434b-VP16) (synthetic); assay: cell_activity; endogenous VEGF-A in HEK 293
T11 chain: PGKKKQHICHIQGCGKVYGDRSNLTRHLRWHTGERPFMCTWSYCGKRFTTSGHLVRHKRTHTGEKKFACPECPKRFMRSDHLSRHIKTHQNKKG

[9] = molecular target: T2, VOP 32B-7 (VZ+434b, mVZ+426); assay: EMSA; conditions: tags: MBP fusion (pMal-c2), SP1 backbone
VOP 32A-6 (VZ+434a) = molecular target: T12, VOP 32A-6 (VZ+434a) (synthetic); assay: EMSA; conditions: tags: MBP fusion (pMal-c2), SP1 backbone
T12 chain: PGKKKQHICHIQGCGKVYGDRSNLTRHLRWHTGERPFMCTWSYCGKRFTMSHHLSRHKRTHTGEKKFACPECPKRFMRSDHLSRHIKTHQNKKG

VOP 28A-2 = VOP 28A-2 (synthetic); assay: EMSA; conditions: tags: MBP fusion (pMal-c2), SP1 backbone
[10] = molecular target: VOP 30A-4 (VZ+42/+530, mVZ+509) (synthetic); assay: EMSA; conditions: tags: MBP fusion (pMal-c2), SP1 backbone

T5 sequence (P08047 620-713): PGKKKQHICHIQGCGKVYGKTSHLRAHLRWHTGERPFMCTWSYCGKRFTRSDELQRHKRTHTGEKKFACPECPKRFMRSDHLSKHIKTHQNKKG
Chain of VOP 30A-4 (VZ+42/+530, mVZ+509) (synthetic) (chain, as listed by the source): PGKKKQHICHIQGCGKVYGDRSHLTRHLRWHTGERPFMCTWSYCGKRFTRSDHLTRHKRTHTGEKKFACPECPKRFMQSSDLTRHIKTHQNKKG
Chain of VOP 35A-10 (VZ+892) (synthetic) (chain, as listed by the source): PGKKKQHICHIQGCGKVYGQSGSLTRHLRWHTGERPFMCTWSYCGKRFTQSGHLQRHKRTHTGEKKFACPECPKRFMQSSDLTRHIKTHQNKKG
Chain of VG 8A (VZ-475) (synthetic) (chain, as listed by the source): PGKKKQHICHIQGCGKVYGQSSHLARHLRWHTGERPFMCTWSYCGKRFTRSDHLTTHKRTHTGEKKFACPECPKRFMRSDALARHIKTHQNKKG
Chain of MTS 5A (P08047 other isoform, or with tags, fused parts or gaps): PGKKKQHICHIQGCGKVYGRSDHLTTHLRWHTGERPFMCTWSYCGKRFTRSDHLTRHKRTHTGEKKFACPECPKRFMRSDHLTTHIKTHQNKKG
Chain of VOP 28A-2 (synthetic) (chain, as listed by the source): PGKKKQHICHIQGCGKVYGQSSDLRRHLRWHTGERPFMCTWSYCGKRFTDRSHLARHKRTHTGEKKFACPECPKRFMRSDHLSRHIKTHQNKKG
Chain of VEGF 1B (P08047 other isoform, or with tags, fused parts or gaps): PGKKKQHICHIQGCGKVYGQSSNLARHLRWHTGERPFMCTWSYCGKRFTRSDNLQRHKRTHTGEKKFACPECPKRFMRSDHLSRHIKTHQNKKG
Chain of ZEN-7A 1 (VZ-573) (P08047 other isoform, or with tags, fused parts or gaps): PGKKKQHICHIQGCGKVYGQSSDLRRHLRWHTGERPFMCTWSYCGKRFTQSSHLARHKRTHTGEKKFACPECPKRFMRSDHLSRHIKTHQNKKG

B1: VZ+472 target (dsDNA)
DNA 1: AAGGGGGAGG
DNA 2: CCTCCCCCTT
B1 was tested, and the Kd (HUM 17A (VZ+472)) was 0.006 nM.

B2: VZ+434 / mVZ+426 target (dsDNA)
DNA 1: GGGGGTGACC
DNA 2: GGTCACCCCC
B2 was tested, and the Kd [1] was < 0.02 nM and the Kd [2] was < 0.01 nM.

B3: VOP 35A-10 target (dsDNA)
DNA 1: GCTGGAGCA
DNA 2: TGCTCCAGC
With B3 the Kd (VOP 35A-10 (VZ+892) [3]) was < 0.02 nM.

B4: VOP 29A-3 target (dsDNA)
DNA 1: GAGGCTTGG
DNA 2: CCAAGCCTC
With B4 the Kd (VOP 29A-3) was < 0.02 nM.

B5: HUM 19A target (dsDNA)
DNA 1: TGGGCAGAC
DNA 2: GTCTGCCCA
For B5, the Kd (HUM 19A) was 0.02 nM.

B6: SP1 target (dsDNA)
DNA 1: GGGGCGGGGG
DNA 2: CCCCCGCCCC
B6 was tested, and the Kd (SP1 zinc finger domain [4]) was 0.25 nM and the Kd (SP1 zinc finger domain [5]) was 0.053 nM.

B7: USX 3A target (dsDNA)
DNA 1: GCCGGGGAG
DNA 2: CTCCCCGGC
B7 showed a Kd (USX 3A) of 0.06 nM.

B8: MTS 5A target (dsDNA)
DNA 1: TGGGGGTGG
DNA 2: CCACCCCCA
Work on B8 yielded a Kd (MTS 5A) of 0.07 nM.

B9: mVZ+509 target (dsDNA)
DNA 1: GCTGGGGGCG
DNA 2: CGCCCCCAGC
With B9 the Kd [6] was < 0.01 nM.

B10: VZ-950 target (dsDNA)
DNA 1: GAAGAGGACC
DNA 2: GGTCCTCTTC
In the case of B10, the Kd (VZ-950) is reported as 0.18 nM.

B11: VZ+590 target (dsDNA)
DNA 1: GCAGGGGCCG
DNA 2: CGGCCCCTGC
For B11, the Kd (PDF 5A (VZ+590)) was 0.23 nM.

B12: VZ+892 target (dsDNA)
DNA 1: GCTGGAGCAC
DNA 2: GTGCTCCAGC
B12 gave a Kd (VOP 35A-10 (VZ+892) [7]) of 0.24 nM.

B13: VZ-475 target (dsDNA)
DNA 1: GTGTGGGGTT
DNA 2: AACCCCACAC
With B13 the Kd (VG 8A (VZ-475)) was 0.35 nM.

B14: BVO 13A / MX1E target (dsDNA)
DNA 1: ATGGACGGG
DNA 2: CCCGTCCAT
For B14, the Kd (MX1E) was 3.4 nM and the Kd (BVO 13A) was < 0.02 nM.

B15: VZ-573 target (dsDNA)
DNA 1: GGGGGCGCTC
DNA 2: GAGCGCCCCC
Work on B15 yielded a Kd (ZEN-7A 1 (VZ-573)) of 0.63 nM.

B16: VEGF 1B target (dsDNA)
DNA 1: GGGGAGGAT
DNA 2: ATCCTCCCC
B16 showed a Kd (VEGF 1B) of 2 nM.

B17: VZ-8 target (dsDNA)
DNA 1: GGGGAGGATC
DNA 2: GATCCTCCCC
In the case of B17, the Kd (VEGF 1 (VZ-8)) is reported as 2.83 nM.

B18: VOP 32A/32B target (dsDNA)
DNA 1: GGGGGTGAC
DNA 2: GTCACCCCC
With B18 the activity [8] was 8 fold, the Kd [9] was < 0.02 nM and the Kd (VOP 32A-6 (VZ+434a)) was < 0.02 nM.

B19: VOP 28A-2 target (dsDNA)
DNA 1: GGGGGCGCT
DNA 2: AGCGCCCCC
B19 was tested, and the Kd (VOP 28A-2) was < 0.02 nM.

B20: VOP 30A target (dsDNA)
DNA 1: GCTGGGGGC
DNA 2: GCCCCCAGC
For B20, the Kd [10] was < 0.02 nM.
